Measured values published in paper PMC2816671 (2010).

Target: von Willebrand factor (Homo sapiens, UniProt P04275)
Experiment: Eu-labelled ligand solid-phase equilibrium binding

| Binder | Kd [nM] |
| --- | --- |
| plasminogen (protein) EPLDDYVNTQGASLFSVTKKQLGAGSIEECAAKCEEDEEFTCRAFQYHSKEQQCVIMAENRKSSIIIRMRDVVLFEKKVYLSECKTGNGKNYRGTMSKTKNGITCQKWSSTSPHRPRFSPATHPSEGLEENYCRNPDNDPQGPWCYTTDPEKRYDYCDILECEEECMHCSGENYDGKISKTMSGLECQAWDSQSPHAHGYIPSKFPNKNLKKNYCRNPDRELRPWCFTTDPNKRWELCDIPRCTTPPPSSGPTYQCLKGTGENYRGNVAVTVSGHTCQHWSAQTPHTHNRTPENFPCKNLDENYCRNPDGKRAPWCHTTNSQVRWEYCKIPSCDSSPVSTEQLAPTAPPELTPVVQDCYHGDGQSYRGTSSTTTTGKKCQSWSSMTPHRHQKTPENYPNAGLTMNYCRNPDADKGPWCFTTDPSVRWEYCNLKKCSGTEASVVAPPPVVLLPDVETPSEEDCMFGNGKGYRGKRATTVTGTPCQDWAAQEPHRHSIFTPETNPRAGLEKNYCRNPDGDVGGPWCYTTNPRKLYDYCDVPQCAAPSFDCGKPQVEPKKCPGRVVGGCVAHPHSWPWQVSLRTRFGMHFCGGTLISPEWVLTAAHCLEKSPRPSSYKVILGAHQEVNLEPHVQEIEVSRLFLEPTRKDIALLKLSSPAVITDKVIPACLPSPNYVVADRTECFITGWGETQGTFGAGLLKEAQLPVIENKVCNRYEFLNGRVQSTELCAGHLAGGTDSCQGDSGGPLVCFEKDKYILQGVTSWGLGCARPNKPGVYVRVSRFVTWIEGVMRNN | 100 |
| plasmin (protein) VVGGCVAHPHSWPWQVSLRTRFGMHFCGGTLISPEWVLTAAHCLEKSPRPSSYKVILGAHQEVNLEPHVQEIEVSRLFLEPTRKDIALLKLSSPAVITDKVIPACLPSPNYVVADRTECFITGWGETQGTFGAGLLKEAQLPVIENKVCNRYEFLNGRVQSTELCAGHLAGGTDSCQGDSGGPLVCFEKDKYILQGVTSWGLGCARPNKPGVYVRVSRFVTWIEGVMRNN | 160 |
| active-site blocked plasmin (protein, Pefabloc (AEBSF) active-site blocked) chain 1: KVYLSECKTGNGKNYRGTMSKTKNGITCQKWSSTSPHRPRFSPATHPSEGLEENYCRNPDNDPQGPWCYTTDPEKRYDYCDILECEEECMHCSGENYDGKISKTMSGLECQAWDSQSPHAHGYIPSKFPNKNLKKNYCRNPDRELRPWCFTTDPNKRWELCDIPRCTTPPPSSGPTYQCLKGTGENYRGNVAVTVSGHTCQHWSAQTPHTHNRTPENFPCKNLDENYCRNPDGKRAPWCHTTNSQVRWEYCKIPSCDSSPVSTEQLAPTAPPELTPVVQDCYHGDGQSYRGTSSTTTTGKKCQSWSSMTPHRHQKTPENYPNAGLTMNYCRNPDADKGPWCFTTDPSVRWEYCNLKKCSGTEASVVAPPPVVLLPDVETPSEEDCMFGNGKGYRGKRATTVTGTPCQDWAAQEPHRHSIFTPETNPRAGLEKNYCRNPDGDVGGPWCYTTNPRKLYDYCDVPQCAAPSFDCGKPQVEPKKCPGR chain 2: VVGGCVAHPHSWPWQVSLRTRFGMHFCGGTLISPEWVLTAAHCLEKSPRPSSYKVILGAHQEVNLEPHVQEIEVSRLFLEPTRKDIALLKLSSPAVITDKVIPACLPSPNYVVADRTECFITGWGETQGTFGAGLLKEAQLPVIENKVCNRYEFLNGRVQSTELCAGHLAGGTDSCQGDSGGPLVCFEKDKYILQGVTSWGLGCARPNKPGVYVRVSRFVTWIEGVMRNN | 270 |
